Results published in article PMC9961625, “Anti-Trypanosoma cruzi Properties of Sesquiterpene Lactones Isolated from Stevia spp.: In Vitro and In Silico Studies” (Pharmaceutics, 2023).

Test system: Cc1cc(=O)oc2cc(NC(=O)[C@@H]3CCCN3C(=O)CNC(=O)OCc3ccccc3)ccc12
Experiment: purified protein

## prolyl oligopeptidase of 80 kDa (Tc80) (Trypanosoma cruzi)
  Km: 5.9 µM
